B1: Cytochrome b5, P00171 (parent)
chain: MAEESSKAVKYYTLEEIQKHNNSKSTWLILHYKVYDLTKFLEEHPGGEEVLREQAGGDATENFEDVGHSTDARELSKTFIIGELHPDDRSKITKPSESIITTIDSNPSWWTNWLIPAISALFVALIYHLYTSEN

Variants of: B1
Settings: Bos taurus, pH 7, Thermal, Absorbance, Sodium phosphate 100 mM, structure 1CYO, whole UniProt chain shown

Row | Variant | ddG of mutation (higher = less stable) (77.6 °C) | ddG of mutation (higher = less stable) (66.7 °C)
1 | MAEESSKAVKYYTLEEIQKHNNSKSTWLILHYKVYDLTKFLEEHPGGEEHLREQAGGDATENFEDVGHSTDARELSKTFIIGELHPDDRSKITKPSESIITTIDSNPSWWTNWLIPAISALFVALIYHLYTSEN | 1.39 kcal/mol | –
2 | MAEESSKAVKYYTLEEIQKHNNSKSTWLILHYKVYDLTKFLEEHPGGEEYLREQAGGDATENFEDVGHSTDARELSKTFIIGELHPDDRSKITKPSESIITTIDSNPSWWTNWLIPAISALFVALIYHLYTSEN | 1.55 kcal/mol | 1.53 kcal/mol
3 | MAEESSKAVKYYTLEEIQKHNNSKSTWLILHYKVYDLTKFLEEHPGGEEELREQAGGDATENFEDVGHSTDARELSKTFIIGELHPDDRSKITKPSESIITTIDSNPSWWTNWLIPAISALFVALIYHLYTSEN | 2.06 kcal/mol | 2.68 kcal/mol

From FireProtDB (doi:10.1016/s0301-4622(99)00119-2)
